Assay results reported in EP1189630B1.

Molecular target: bovine hemoglobin (bovine) (UniProt P01966)
Experiment: solid-phase ligand binding assay (ELISA), hemoglobin-coated wells; one value printed for rHA2, RgpA and Kgp

UniProt P01966, sequence (P01966 2-142 limits assumed, chain 1 of 2): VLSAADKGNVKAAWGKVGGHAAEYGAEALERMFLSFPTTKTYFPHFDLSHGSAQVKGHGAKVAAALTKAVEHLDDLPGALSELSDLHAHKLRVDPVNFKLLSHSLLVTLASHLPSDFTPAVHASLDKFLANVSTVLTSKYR
UniProt P01966, sequence (P02070 whole entry, chain 2 of 2, further chain): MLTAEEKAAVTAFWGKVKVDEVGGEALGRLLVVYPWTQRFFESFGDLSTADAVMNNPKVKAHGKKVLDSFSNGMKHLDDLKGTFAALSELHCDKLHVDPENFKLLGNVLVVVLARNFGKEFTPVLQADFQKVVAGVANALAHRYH

## polydomain Arg-gingipain RgpA isolated from P. gingivalis (ATCC 33277) (from UniProt P28784 228-991) (enzyme)
  Kd: 2.1 nM
